US20190241886A1

Target: CD137 (soluble antigen for staining of yeast) (human) (UniProt Q07011)
Assay: flow cytometry of yeast displaying the scFv, stained with human CD137; number printed over the dot plot, y axis CD137 binding (FL2-A PE-A), x axis scFv display

Chain of CD137 (soluble antigen for staining of yeast) (human) (Q07011 24-186 limits assumed): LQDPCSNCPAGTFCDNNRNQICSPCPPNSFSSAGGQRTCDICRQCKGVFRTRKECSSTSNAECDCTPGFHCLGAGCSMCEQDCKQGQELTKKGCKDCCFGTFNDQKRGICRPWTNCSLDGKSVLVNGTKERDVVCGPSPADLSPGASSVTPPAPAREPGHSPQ

Y: 19200
B1: scFv of parental CD137 antibody TY21242 displayed on yeast (scFv, part only; not given: linker, Aga2 and tag, V domains shown, not shown: another chain or arm of the molecule; large carriers; small tags and cut ends)
VL: DIQLTQSPSSLSASVGDRVTITCRASQSIGSYLAWYQQKPGKAPKLLIYDASNLETGVPSRFSGSGSGTDFTLTISSLQPEDFATYYCQQGYYLWTFGQGTKVEIK
VH: EVQLVESGGGLVQPGGSLRLSCAASGFSLSTGGVGVGWIRQAPGKGLEWLALIDWADDKYYSPSLKSRLTISRDNSKNTLYLQLNSLRAEDTAVYYCARGGSDTVIGDWFAYWGQGTLVTVSS
